Patent US20200030425
Read-outs that look alike come from different tables or passages of the source.

Legend:
hCD32a-H131 (human) [1] = target: hCD32a-H131 (human) (UniProt P12318)
hCD16a-F158 (human) [2] = target: hCD16a-F158 (human) (UniProt P08637)
hCD16a-F158 (human) [3] = target: hCD16a-F158 (human) (UniProt P08637); remark: listed apart in the source
hCD32a-H131 (human) [4] = target: hCD32a-H131 (human) (UniProt P12318); remark: listed apart in the source

Sequence of hCD16a-F158 (human) (P08637 17-208): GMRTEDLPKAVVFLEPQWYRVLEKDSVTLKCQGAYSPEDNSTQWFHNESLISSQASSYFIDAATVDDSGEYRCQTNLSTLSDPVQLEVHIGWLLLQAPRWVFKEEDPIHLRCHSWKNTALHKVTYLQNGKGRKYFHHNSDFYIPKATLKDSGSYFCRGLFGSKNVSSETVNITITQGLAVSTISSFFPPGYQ
Sequence of hCD32a-H131 (human) (P12318 34-217): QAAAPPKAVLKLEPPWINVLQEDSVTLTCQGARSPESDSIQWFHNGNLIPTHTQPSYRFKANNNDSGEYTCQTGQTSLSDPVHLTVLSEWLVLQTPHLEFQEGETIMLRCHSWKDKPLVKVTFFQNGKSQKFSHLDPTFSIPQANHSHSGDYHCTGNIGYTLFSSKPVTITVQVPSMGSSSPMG

Row | Kd (hCD32a-H131 (human) [1]) | Kd (hCD16a-F158 (human) [2]) | Kd (hCD16a-F158 (human) [3]) | Kd (hCD32a-H131 (human) [4]) | Substance
1 | 530 µM | 200 µM |  |  | IgG1f
2 |  |  | > 5000 µM | 650 µM | IgG1f-S267E
